For this assay, the target named is T1, wild-type HMPV F protein (soluble, secreted, with C-terminal GCNt trimerization domain) (human metapneumovirus, B2 strain).
T1 construct: fusion (F) glycoprotein of human metapneumovirus, B2 strain; soluble secreted form, GCNt joined in-frame with the heptad repeat of the C-terminal HRB; Preparations are mixtures of pre- and post-fusion forms; heating to 50°C for 30 min converts them to the post-fusion form (written as assays of their own); The trimer may rest in part on the GCNt domain; also called wt HMPV F; MPV F-GCNt; not …
In words: SPR; BiOptix 404pi; F proteins captured on NiHC1000m chip through their C-terminal His tag to 120 RU; Fab injected at 300 to 0.14 nM, 100 ul/min; 10 mM HEPES pH 7.2, 150 mM NaCl, 0.005% Tween 20, 50 uM EDTA; simple Langmuir model. Particulars: both partners purified.

B1: motavizumab Fab (affinity-matured variant of palivizumab, anti-RSV F site II/A) (Fab, V domains shown)
VH: QVTLRESGPALVKPTQTLTLTCTFSGFSLSTAGMSVGWIRQPPGKALEWLADIWWDDKKHYNPSLKDRLTISKDTSKNQVVLKVTNMDPADTATYYCARDMIFNFYFDVWGQGTTVTVSS
VL: DIQMTQSPSTLSASVGDRVTITCSASSRVGYMHWYQQKPGKAPKLLIYDTSKLASGVPSRFSGSGSGTEFTLTISSLQPDDFATYYCFQGSGYPFTFGGGTKVEIK
notes: heavy chain of the Fab in the motavizumab:RSV peptide complex PDB 3IXT; light chain of the Fab in the motavizumab:RSV peptide complex PDB 3IXT; Variable genes cloned into pEE6.4 (heavy) and pEE12.4 (light) vectors (Lonza); constant parts of the Fab construct are not described; source: FreeStyle 293-F cells, co-transfected (PEI), purified from supernatant (protein G column)
On to B1, for which the binding result is “no binding”.

The record behind these values is PMC4880302, “A Chimeric Pneumovirus Fusion Protein Carrying Neutralizing Epitopes of Both MPV and RSV” (PLoS ONE, 2016).
